Test results as given in US6528620B1, “Sid-polyamide fusions: a potent method of regulating gene expression” (University of Utah Research Foundation, priority 1999, dated 2003).
Where no end group is shown, it is not given here.

B6: VP16PAH2 (amino acids 251-404 of mSin3A encoding the PAH2 domain fused to the VP16 activation domain) (other)
chain: SKPSQLQAHTPASQQTPPLPPYASPRSPPVQPHTPVTISLGTAPSLQNNQPVEFNHAINYVNKIKNRFQGQPDIYKAFLEILHTYQKEQRNAKEAGGNYTPALTEQEVYAQVARLFKNQEDLLSEFGQFLPDANSSVLLSKTTAEKVDSVRNDH
notes: range 251-404; Prey of the directed two-hybrid assay in S. cerevisiae L40

Key:
[1] = biological target: mSin3-HDAC corepressor complex; test: cell-based or functional assay
[2] = system: GAL4 DNA binding domain-responsive reporter; test: Transcription assay, Gal4-14D luciferase reporter in 293 cells; format: cell-based; details: relative to the GALDBD alone level, 24 h after transfection
Method: Transcription Assays—293 cells were grown in Dulbecco's modified Eagle's medium with 10% defined calf serum (HyClone). 2×10^5 cells were planted on 60-mm dishes and transfected with 200 ng of the Gal4-14D luciferase reporter (Ayer et al., Mol. Cell Biol. 16:5772-5781 (1996)) and 1 μg of the indicated expression vector. Cells harvested 24 h after transfection and luciferase and β-galactosidase activity measured according to the manufacturers' protocols (Promega and Tropix). Each transfection was performed at least twice in triplicate. Error shown is the standard of the mean.
To test whether this minimal thirteen residue interaction domain is sufficient to target a functional mSin3:HDAC corepressor complex to DNA, we fused amino acids 8-20 from Mad1 to the DNA binding domain of the yeast transcriptional activator GAL4 (GALDBD). The transcriptional activity of GALSID(8-20) WT was tested on a reporter containing four GAL4 binding sites cloned upstream of a minimal promoter (FIG. 6A). Consistent with our previous findings (Ayer et al., Mol. Cell. Biol. 16:5772-5781 (1996)), the GALDBD alone activates this reporter approximately 3-fold, and a fusion between the first 35 amino acids of Mad1 and the GALDBD repressed this level of reporter activity approximately 7-fold. […] Amino acids 10, 14, and 17 of the SID can be mutated to alanine without adversely affecting the interaction with PAH2 (FIG. 3). However, it is possible that these residues constitute a surface that interacts with other components of the mSin3-HDAC complex and/or components of the general transcriptional machinery. To test whether mutation of these residues may impair the ability of the SID to recruit a functional corepressor complex, we constructed a minimal SID containing the mutations Q10A, E14A, and D17A in the context of a GALDBD fusion (FIG. 6A).

[3] = biological target: T1, GST-PAH2, a GST fusion to the PAH2 domain of mSIN3A (UniProt P08515 1-218 = GST; Q60520 300-383); test: far Western blot, probe purified under native conditions
T1 construct: Expressed in bacteria, resolved by SDS-PAGE and immobilised on PVDF membrane
Method: Recombinant GST and GST-PAH2 were expressed in bacteria and purified on glutathione-Sepharose 4B (Amersham Pharmacia Biotech). […] The blots were blocked in far Western Buffer (PBS containing 0.1% Nonidet P-40, 1 mM EDTA, and 1 mM dithiothreitol) containing 5% nonfat dry milk for 1 h at 4° C. Purified probes were added to blots in 5 ml of far Western buffer containing 1% nonfat dry milk and incubated together at 4° C. overnight with rocking. Following washing with far Western buffer, the blots were air-dried and exposed 48 h for autoradiography.

[4] = biological target: T2, PAH2 domain of mSin3A (GST-PAH2) (Mus musculus, UniProt Q60520); test: Far Western blot, 35S-labeled Mad1 probes on immobilized GST-PAH2; format: binding, mammalian
T2 construct: GST-PAH2, a GST fusion to the PAH2 domain of mSIN3A; made in house; host or cells: bacteria
T2 sequence (Q60520 300-383 limits assumed): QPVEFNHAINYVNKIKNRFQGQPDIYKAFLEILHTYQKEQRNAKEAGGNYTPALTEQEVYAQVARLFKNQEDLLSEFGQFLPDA
Method: (§1) Far Western Blotting—Mad1His and Mad1(L12P/A16P)His (Ayer et al., Cell 80:767-776 (1995)), which have a polyhistidine tag fused to their carboxyl termini, were translated in vitro in 50 μl reactions using the TNT coupled reticulocyte lysate system (Promega) and ^35[S]methionine (NEN Life Science Products) and were purified under native or denaturing conditions. Ni^2+-NTA agarose (Qiagen) was blocked with rabbit reticuocyte lysate (diluted 1:3 in PBS) for 30 min at 4° C. and then incubated with the in vitro synthesized Mad1His and Mad1(L12P/A16P)His for 30 min at 4° C. in PBS native or 6 M guanidine hydrochloride, 0.1 M NaH2PO4, and 0.01 M Tris, pH 8.0 (denaturating conditions) followed by extensive washing with the same buffers. The bound proteins were eluted in PBS containing 0.5 M imidazole and then dialyzed overnight against PBS to remove the imidazole and allow for renaturation. Recombinant GST and GST-PAH2 were expressed in bacteria and purified on glutathione-Sepharose 4B (Amersham Pharmacia Biotech). The blots were prepared by resolving 1 μg of GST-PAH2 on 15% SDS-PAGE, followed by transfer to PVDF membrane. The blots were blocked in far Western Buffer (PBS containing 0.1% Nonidet P-40, 1 mM EDTA, and 1 mM dithiothreitol) containing 5% nonfat dry milk for 1 h at 4° C. Purified probes were added to blots in 5 ml of far Western buffer containing 1% nonfat dry milk and incubated together at 4° C. overnight with rocking. Following washing with far Western buffer, the blots were air-dried and exposed 48 h for autoradiography.
To determine whether the interaction between Mad1 and mSin3A is direct, we used far Western blot assays. In these experiments GST-PAH2, a GST fusion to the PAH2 domain of mSIN3A, and GST alone were resolved by SDS-PAGE followed by transfer to a PVDF membrane. […] Equal efficiency of transcription and translation of these proteins was confirmed by SDS-PAGE followed by autoradiography to detect the proteins (data not shown). These protein probes were purified on Ni^2+-NTA agarose under native or denaturing conditions. […]

[5] = biological target: T3, GST (Schistosoma japonicum, UniProt P08515); test: Far Western blot, 35S-labeled Mad1 probes on immobilized GST alone; format: binding; details: probe purified under denaturing conditions
T3 construct: made in house; host or cells: bacteria
T3 sequence (P08515 whole entry): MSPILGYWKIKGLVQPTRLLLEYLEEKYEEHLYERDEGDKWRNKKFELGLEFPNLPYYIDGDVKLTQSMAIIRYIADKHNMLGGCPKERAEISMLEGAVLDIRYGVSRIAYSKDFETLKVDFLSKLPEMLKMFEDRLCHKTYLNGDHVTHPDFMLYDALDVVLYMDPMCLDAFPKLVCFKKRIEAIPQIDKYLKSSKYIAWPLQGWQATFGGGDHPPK
Method: as §1, with “Purified probes were added to blots in 5 ml of far Western buffer containing 1% nonfat dry milk and incubated together at 4° C. overnight with rocking. Following washing with far Western buffer, the blots were air-dried and exposed 48 h for autoradiography.” left out

[6] = biological target: T4, LexA fused to amino acids 8-20 of wildtype Mad1 (bacterial; human, UniProt P0A7C2 1-202); test: directed yeast two-hybrid assay (LexA-SID with VP16PAH2, beta-galactosidase)
T4 construct: also called SID 8-20; minimal SID
T4 sequence: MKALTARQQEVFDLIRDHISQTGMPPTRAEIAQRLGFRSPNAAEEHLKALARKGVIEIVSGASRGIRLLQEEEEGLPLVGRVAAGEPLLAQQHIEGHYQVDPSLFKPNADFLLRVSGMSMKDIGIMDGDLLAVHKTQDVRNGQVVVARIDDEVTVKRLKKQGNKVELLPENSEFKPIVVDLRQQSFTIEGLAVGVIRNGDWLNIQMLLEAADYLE

[7] = biological target: T5, LexA fused to amino acids 1-57 of Mad1 (bacterial; human, UniProt P0A7C2 1-202; Q05195 1-57); test: as above
T5 construct: also called SID 1-57
T5 sequence: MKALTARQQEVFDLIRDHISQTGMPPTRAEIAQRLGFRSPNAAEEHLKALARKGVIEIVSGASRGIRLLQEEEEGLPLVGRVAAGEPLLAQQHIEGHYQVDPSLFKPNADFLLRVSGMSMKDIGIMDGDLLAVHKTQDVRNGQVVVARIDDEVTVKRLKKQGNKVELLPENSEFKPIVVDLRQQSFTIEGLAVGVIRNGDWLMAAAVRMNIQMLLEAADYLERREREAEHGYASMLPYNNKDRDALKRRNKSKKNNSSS

[8] = biological target: B6; test: as above
[9] = probe purified under denaturing conditions and renatured

fusion between the first 35 amino acids of Mad1 and the GALDBD (from UniProt P04386 1-147; Q05195 1-35)
repression of a GAL4 DNA binding domain-responsive luciferase reporter in 293 cells [1]: 7 fold

GALSID Q10A, E14A, D17A: minimal SID containing the mutations Q10A, E14A, and D17A in the context of a GALDBD fusion (NIAMLLAAAAYLE; also: GAL4 DNA binding domain fusion; UniProt Q05195 8-20, looked up, variant Q10A E14A D17A)
repression of reporter activity [2]: repressed transcription to the same extent as the wild-type minimal SID

B1: GALSID(8-20) WT: amino acids 8-20 from Mad1 fused to the GAL4 DNA binding domain (protein)
chain: MKLLSSIEQACDICRLKKLKCSKEKPKCAKCLKNNWECRYSPKTKRSPLTRAHLTEVESRLERLEQLFLLIFPREDLDMILKMDSLQDIKALLTGLFVQDNVNKDAVTDRLASVETDMPLTLRQHRISATSSSEESSNKGQRQLTVSNIQMLLEAADYLE
repression of reporter activity [2]: repressed transcription to approximately the same level
repression of reporter activity ([2]; listed as minimal thirteen amino acid SID): functions similarly to the longer 35-amino acid SID

B2: Mad1(L12P/A16P)His (other, human, UniProt Q05195 1-221, looked up)
chain: MAAAVRMNIQMPLEAPDYLERREREAEHGYASMLPYNNKDRDALKRRNKSKKNNSSSRSTHNEMEKNRRAHLRLCLEKLKGLVPLGPESSRHTTLSLLTKAKLHIKKLEDCDRKAVHQIDQLQREQRHLKRQLEKLGIERIRMDSIGSTVSSERSDSDREEIDVDVESTDYLTGDLDWSSSSVSDSDERGSMQSLGSDEGYSSTSIKRIKLQDSHKACLGL
modifications: 35S-methionine labelled (in vitro translated)
notes: Mutant Mad1 probe in the far Western blot; not shown: polyhistidine tag fused to the carboxyl terminus
binding result [3]: no binding

B3: Mad1(L12P/A16P)His: polyhistidine-tagged mutant Mad1 protein with L12P/A16P point mutations in the SID (protein)
chain: MAAAVRMNIQMPLEAPDYLERREREAEHGYASMLPYNNKDRDALKRRNKSKKNNSSSRSTHNEMEKNRRAHLRLCLEKLKGLVPLGPESSRHTTLSLLTKAKLHIKKLEDCDRKAVHQIDQLQREQRHLKRQLEKLGIERIRMDSIGSTVSSERSDSDREEIDVDVESTDYLTGDLDWSSSSVSDSDERGSMQSLGSDEGYSSTSIKRIKLQDSHKACLGL
modifications: left off: small tags and cut ends
notes: polyhistidine-tagged mutant Mad1 protein with L12P/A16P point mutations in the SID
interaction with GST-PAH2 [4, 9]: did not interact
interaction with GST alone [5]: did not interact

B4: Mad1His: in vitro translated 35S-labeled Mad1 with a polyhistidine tag fused to its carboxyl terminus (protein)
chain: MAAAVRMNIQMLLEAADYLERREREAEHGYASMLPYNNKDRDALKRRNKSKKNNSSSRSTHNEMEKNRRAHLRLCLEKLKGLVPLGPESSRHTTLSLLTKAKLHIKKLEDCDRKAVHQIDQLQREQRHLKRQLEKLGIERIRMDSIGSTVSSERSDSDREEIDVDVESTDYLTGDLDWSSSSVSDSDERGSMQSLGSDEGYSSTSIKRIKLQDSHKACLGL
modifications: left off: small tags and cut ends
notes: in vitro translated 35S-labeled Mad1 with a polyhistidine tag fused to its carboxyl terminus
interaction with GST-PAH2 [4, 9]: also interacted with GST-PAH2
interaction with GST-PAH2 ([4]; probe purified under native conditions): able to interact
interaction with GST alone [5]: not with GST alone

B5: fusion between the first 35 amino acids of Mad1 and the GALDBD: first 35 amino acids of Mad1 fused to the GAL4 DNA binding domain (protein)
chain: MKLLSSIEQACDICRLKKLKCSKEKPKCAKCLKNNWECRYSPKTKRSPLTRAHLTEVESRLERLEQLFLLIFPREDLDMILKMDSLQDIKALLTGLFVQDNVNKDAVTDRLASVETDMPLTLRQHRISATSSSEESSNKGQRQLTVSMAAAVRMNIQMLLEAADYLERREREAEHGYASMLP
repression of reporter activity [2]: approximately 7 fold

B6
binding result [6]: binds
binding result [7]: binds

B7: LexA fused to SID 1-27 (other)
chain: MKALTARQQEVFDLIRDHISQTGMPPTRAEIAQRLGFRSPNAAEEHLKALARKGVIEIVSGASRGIRLLQEEEEGLPLVGRVAAGEPLLAQQHIEGHYQVDPSLFKPNADFLLRVSGMSMKDIGIMDGDLLAVHKTQDVRNGQVVVARIDDEVTVKRLKKQGNKVELLPENSEFKPIVVDLRQQSFTIEGLAVGVIRNGDWLMAAAVRMNIQMLLEAADYLERREREAE
notes: Carboxyl-terminal deletion of 30 amino acids from SID 1-57
fold better binding than SID 1-57 (relative beta-galactosidase activity) [8]: ~2 fold
